system: Escherichia coli TOP10; test: shrunken log2 fold change of peptide-encoding DNA abundance (4.5 h post-induction vs induction); higher = less antimicrobial activity (less host growth inhibition); conditions: time post-induction: 4.5 h; library: site-saturation at positions 5, 18, 19, 20
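Further: peptides expressed intracellularly from a pBAD plasmid library in pooled LB shake-flask culture, induced with 0.3% L-arabinose, DNA abundance read by NGS, three biological replicates, DESeq2 with apeglm shrinkage.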

Row | Sequence | shrunken log2 fold change
1 | RRIRMRPPRLPRPRPRPVKRPRP | -0.0121
2 | RRIRMRPPRLPRPRPRPVLVPRP | 0.223
3 | RRIRMRPPRLPRPRPRPVMCPRP | 0.321
4 | RRIRMRPPRLPRPRPRPVMIPRP | 0.021
5 | RRIRMRPPRLPRPRPRPVQCPRP | -0.0134
6 | RRIRMRPPRLPRPRPRPVQFPRP | 0.276
7 | RRIRMRPPRLPRPRPRPVRTPRP | 0.673
8 | RRIRMRPPRLPRPRPRPVSPPRP | 0.418
9 | RRIRMRPPRLPRPRPRPVSSPRP | -0.0703
10 | RRIRMRPPRLPRPRPRPVTQPRP | 0.317
11 | RRIRMRPPRLPRPRPRPVTVPRP | 0.0436
12 | RRIRMRPPRLPRPRPRPVVSPRP | 0.095
13 | RRIRMRPPRLPRPRPRPVWKPRP | 0.178
14 | RRIRMRPPRLPRPRPRPVWMPRP | 0.169
15 | RRIRMRPPRLPRPRPRPVYAPRP | 0.243
16 | RRIRMRPPRLPRPRPRPWCVPRP | 0.0904
17 | RRIRMRPPRLPRPRPRPWDCPRP | 0.00902
18 | RRIRMRPPRLPRPRPRPWDTPRP | -0.0606
19 | RRIRMRPPRLPRPRPRPWEHPRP | 0.0244
20 | RRIRMRPPRLPRPRPRPWEVPRP | -0.00931
21 | RRIRMRPPRLPRPRPRPWGCPRP | 0.311
22 | RRIRMRPPRLPRPRPRPWHKPRP | -0.00776
23 | RRIRMRPPRLPRPRPRPWHPPRP | -0.297
24 | RRIRMRPPRLPRPRPRPWIKPRP | 0.101
25 | RRIRMRPPRLPRPRPRPWMGPRP | -0.33

Row | Sequence | shrunken log2 fold change
26 | RRIRMRPPRLPRPRPRPWPKPRP | 0.543
27 | RRIRMRPPRLPRPRPRPWPLPRP | 0.0935
28 | RRIRMRPPRLPRPRPRPWPRPRP | 1.25
29 | RRIRMRPPRLPRPRPRPWPVPRP | 0.287
30 | RRIRMRPPRLPRPRPRPWRDPRP | 0.518
31 | RRIRMRPPRLPRPRPRPWTAPRP | -0.0195
32 | RRIRMRPPRLPRPRPRPWVNPRP | 0.0668
33 | RRIRMRPPRLPRPRPRPWVVPRP | 0.346
34 | RRIRMRPPRLPRPRPRPWWEPRP | -0.425
35 | RRIRMRPPRLPRPRPRPWWPPRP | 0.445
36 | RRIRMRPPRLPRPRPRPWYPPRP | -0.786
37 | RRIRMRPPRLPRPRPRPYATPRP | -0.0602
38 | RRIRMRPPRLPRPRPRPYCEPRP | -0.34
39 | RRIRMRPPRLPRPRPRPYCGPRP | -0.0255
40 | RRIRMRPPRLPRPRPRPYFGPRP | -0.138
41 | RRIRMRPPRLPRPRPRPYFLPRP | -0.542
42 | RRIRMRPPRLPRPRPRPYHEPRP | -0.391
43 | RRIRMRPPRLPRPRPRPYIAPRP | -0.038
44 | RRIRMRPPRLPRPRPRPYICPRP | -0.201
45 | RRIRMRPPRLPRPRPRPYIPPRP | -1.28
46 | RRIRMRPPRLPRPRPRPYLYPRP | -0.0828
47 | RRIRMRPPRLPRPRPRPYMAPRP | -0.162
48 | RRIRMRPPRLPRPRPRPYMRPRP | 0.0391
49 | RRIRMRPPRLPRPRPRPYMVPRP | -0.0313
50 | RRIRMRPPRLPRPRPRPYNDPRP | 0.0185

Row | Sequence | shrunken log2 fold change
51 | RRIRMRPPRLPRPRPRPYNQPRP | -0.486
52 | RRIRMRPPRLPRPRPRPYNRPRP | -0.336
53 | RRIRMRPPRLPRPRPRPYPDPRP | -0.0456
54 | RRIRMRPPRLPRPRPRPYQTPRP | -0.0231
55 | RRIRMRPPRLPRPRPRPYRAPRP | -0.691
56 | RRIRMRPPRLPRPRPRPYRDPRP | -0.018
57 | RRIRMRPPRLPRPRPRPYSGPRP | -0.00278
58 | RRIRMRPPRLPRPRPRPYSIPRP | -0.0122
59 | RRIRMRPPRLPRPRPRPYSYPRP | 0.0871
60 | RRIRMRPPRLPRPRPRPYTCPRP | 8.02e-05
61 | RRIRMRPPRLPRPRPRPYVTPRP | -0.298
62 | RRIRMRPPRLPRPRPRPYYMPRP | -0.0189
63 | RRIRMRPPRLPRPRPRPYYRPRP | 0.0143
64 | RRIRNRPPRLPRPRPRPAAHPRP | -0.00675
65 | RRIRNRPPRLPRPRPRPAASPRP | 0.739
66 | RRIRNRPPRLPRPRPRPACPPRP | 0.307
67 | RRIRNRPPRLPRPRPRPACWPRP | 0.449
68 | RRIRNRPPRLPRPRPRPADEPRP | -0.00151
69 | RRIRNRPPRLPRPRPRPADHPRP | -0.0958
70 | RRIRNRPPRLPRPRPRPADTPRP | 0.124
71 | RRIRNRPPRLPRPRPRPAEWPRP | 0.412
72 | RRIRNRPPRLPRPRPRPAFPPRP | -0.138
73 | RRIRNRPPRLPRPRPRPAGHPRP | 0.133
74 | RRIRNRPPRLPRPRPRPAGRPRP | 0.486
75 | RRIRNRPPRLPRPRPRPAGVPRP | 0.329

Row | Sequence | shrunken log2 fold change
76 | RRIRNRPPRLPRPRPRPAHGPRP | 0.047
77 | RRIRNRPPRLPRPRPRPAHPPRP | 0.307
78 | RRIRNRPPRLPRPRPRPAHSPRP | 0.111
79 | RRIRNRPPRLPRPRPRPAIHPRP | 0.0529
80 | RRIRNRPPRLPRPRPRPAKDPRP | 0.0231
81 | RRIRNRPPRLPRPRPRPAKHPRP | 0.027
82 | RRIRNRPPRLPRPRPRPAKYPRP | -0.134
83 | RRIRNRPPRLPRPRPRPAMNPRP | -0.000576
84 | RRIRNRPPRLPRPRPRPAPLPRP | 0.196
85 | RRIRNRPPRLPRPRPRPARRPRP | 0.294
86 | RRIRNRPPRLPRPRPRPARVPRP | 0.574
87 | RRIRNRPPRLPRPRPRPASGPRP | 0.247
88 | RRIRNRPPRLPRPRPRPASIPRP | -0.0365
89 | RRIRNRPPRLPRPRPRPASMPRP | -0.064
90 | RRIRNRPPRLPRPRPRPATCPRP | -0.00428
91 | RRIRNRPPRLPRPRPRPATFPRP | -0.441
92 | RRIRNRPPRLPRPRPRPATLPRP | -0.365
93 | RRIRNRPPRLPRPRPRPAVGPRP | 0.543
94 | RRIRNRPPRLPRPRPRPAYCPRP | -0.0951
95 | RRIRNRPPRLPRPRPRPAYEPRP | -0.0122
96 | RRIRNRPPRLPRPRPRPCAWPRP | -0.147
97 | RRIRNRPPRLPRPRPRPCCAPRP | -0.0874
98 | RRIRNRPPRLPRPRPRPCDHPRP | -0.0208
99 | RRIRNRPPRLPRPRPRPCEAPRP | -0.18
100 | RRIRNRPPRLPRPRPRPCGLPRP | 0.0441

Row | Sequence | shrunken log2 fold change
101 | RRIRNRPPRLPRPRPRPCIWPRP | 0.131
102 | RRIRNRPPRLPRPRPRPCKKPRP | -0.0371
103 | RRIRNRPPRLPRPRPRPCKQPRP | -0.0218
104 | RRIRNRPPRLPRPRPRPCMHPRP | -0.0807
105 | RRIRNRPPRLPRPRPRPCMRPRP | 0.0891
106 | RRIRNRPPRLPRPRPRPCPFPRP | -0.208
107 | RRIRNRPPRLPRPRPRPCPVPRP | -0.438
108 | RRIRNRPPRLPRPRPRPCQAPRP | -0.112
109 | RRIRNRPPRLPRPRPRPCQIPRP | -0.0177
110 | RRIRNRPPRLPRPRPRPCSSPRP | -0.0135
111 | RRIRNRPPRLPRPRPRPCTKPRP | 0.00474
112 | RRIRNRPPRLPRPRPRPCVCPRP | -0.00201
113 | RRIRNRPPRLPRPRPRPCWDPRP | 0.125
114 | RRIRNRPPRLPRPRPRPCWVPRP | -0.0518
115 | RRIRNRPPRLPRPRPRPDCKPRP | -0.0698
116 | RRIRNRPPRLPRPRPRPDCWPRP | -0.0568
117 | RRIRNRPPRLPRPRPRPDDEPRP | -0.00101
118 | RRIRNRPPRLPRPRPRPDDLPRP | -0.000687
119 | RRIRNRPPRLPRPRPRPDDQPRP | 0.0463
120 | RRIRNRPPRLPRPRPRPDFNPRP | -0.186
121 | RRIRNRPPRLPRPRPRPDGFPRP | -0.104
122 | RRIRNRPPRLPRPRPRPDGLPRP | 0.038
123 | RRIRNRPPRLPRPRPRPDGNPRP | 0.102
124 | RRIRNRPPRLPRPRPRPDGQPRP | -0.0321
125 | RRIRNRPPRLPRPRPRPDHAPRP | -0.0118

Row | Sequence | shrunken log2 fold change
126 | RRIRNRPPRLPRPRPRPDHLPRP | -0.0163
127 | RRIRNRPPRLPRPRPRPDHMPRP | -0.00141
128 | RRIRNRPPRLPRPRPRPDIAPRP | -0.0447
129 | RRIRNRPPRLPRPRPRPDIDPRP | -0.0391
130 | RRIRNRPPRLPRPRPRPDILPRP | -0.156
131 | RRIRNRPPRLPRPRPRPDMFPRP | -0.00166
132 | RRIRNRPPRLPRPRPRPDNQPRP | -0.323
133 | RRIRNRPPRLPRPRPRPDPGPRP | 0.0569
134 | RRIRNRPPRLPRPRPRPDRVPRP | -0.275
135 | RRIRNRPPRLPRPRPRPDSHPRP | -0.0854
136 | RRIRNRPPRLPRPRPRPDSYPRP | -0.054
137 | RRIRNRPPRLPRPRPRPDTSPRP | -0.0648
138 | RRIRNRPPRLPRPRPRPDVRPRP | -0.104
139 | RRIRNRPPRLPRPRPRPDWSPRP | -0.256
140 | RRIRNRPPRLPRPRPRPEAIPRP | 0.113
141 | RRIRNRPPRLPRPRPRPECIPRP | 2.1
142 | RRIRNRPPRLPRPRPRPEFSPRP | 0.0268
143 | RRIRNRPPRLPRPRPRPEGCPRP | -0.0205
144 | RRIRNRPPRLPRPRPRPEGMPRP | 0.225
145 | RRIRNRPPRLPRPRPRPEGWPRP | 0.68
146 | RRIRNRPPRLPRPRPRPEGYPRP | -0.169
147 | RRIRNRPPRLPRPRPRPEIEPRP | 0.0339
148 | RRIRNRPPRLPRPRPRPEIGPRP | 0.195
149 | RRIRNRPPRLPRPRPRPEKTPRP | -0.0226
150 | RRIRNRPPRLPRPRPRPELSPRP | 0.0211
